Usually Kd stands for the equilibrium constant for the complex coming apart.

Here are results for 1 molecule from paper PMC8444507 (Signal Transduction and Targeted Therapy, 2021).

The assay has as its target T1, wild-type human ACE2 peptidase domain (PD) (human, UniProt Q9BYF1 19-615).
T1 construct: also called ACE2/WT; ACE2 WT
Kind of assay: SPR. To be noted: both partners purified.

Values joined by “and” are separate entries in the source; they are usually repeats but may differ in a detail not shown here. Equal values may be shown once.

T1 sequence (Q9BYF1 19-615): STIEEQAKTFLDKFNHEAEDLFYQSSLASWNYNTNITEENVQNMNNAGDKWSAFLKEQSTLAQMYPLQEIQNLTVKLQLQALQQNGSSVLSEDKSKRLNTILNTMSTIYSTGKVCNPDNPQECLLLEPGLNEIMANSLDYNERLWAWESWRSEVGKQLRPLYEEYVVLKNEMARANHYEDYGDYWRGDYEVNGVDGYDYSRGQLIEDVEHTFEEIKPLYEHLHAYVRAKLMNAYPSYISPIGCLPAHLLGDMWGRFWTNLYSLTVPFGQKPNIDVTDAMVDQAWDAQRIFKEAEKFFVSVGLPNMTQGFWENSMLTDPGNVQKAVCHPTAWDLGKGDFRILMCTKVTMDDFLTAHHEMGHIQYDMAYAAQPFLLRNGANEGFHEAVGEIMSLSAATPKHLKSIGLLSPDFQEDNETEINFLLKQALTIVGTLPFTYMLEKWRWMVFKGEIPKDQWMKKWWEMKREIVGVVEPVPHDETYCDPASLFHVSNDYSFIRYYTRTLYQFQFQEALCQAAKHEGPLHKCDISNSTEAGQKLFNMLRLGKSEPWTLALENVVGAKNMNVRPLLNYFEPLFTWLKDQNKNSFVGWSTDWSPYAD

B1: SARS-CoV spike receptor-binding domain (S-RBD), wild-type (domain or fragment)
chain: not shown
As for B1, the dissociation constant (Kd) was 523 nM and 971 nM and 500 nM.
